The numbers were not newly measured in publication PMC4860049, which cites them from elsewhere.

This data set addresses CHMP5 (Homo sapiens) (UniProt Q9NZZ3).
Sequence of UniProt Q9NZZ3 (Q9NZZ3 whole entry): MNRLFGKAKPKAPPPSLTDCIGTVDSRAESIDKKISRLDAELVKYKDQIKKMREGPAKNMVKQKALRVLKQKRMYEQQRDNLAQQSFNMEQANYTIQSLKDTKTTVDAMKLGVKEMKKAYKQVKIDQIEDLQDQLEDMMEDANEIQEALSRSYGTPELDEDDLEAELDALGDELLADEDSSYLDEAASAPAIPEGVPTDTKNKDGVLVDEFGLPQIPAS

Consider LIP5 MIT2 (from UniProt Q9NP79), for which the Kd (usually the free concentration of one partner at which half of the binding sites on the other are occupied at equilibrium, for simple one-to-one binding) is 3 nM.
